Measurements as given in the DeepSol protein solubility set.

Assay: soluble on expression in E. coli; label from the status in PepcDB or PDB records

Sequence	soluble on expression in E. coli
TPYDPLTLWTTPDPPPNCSLIQELDAKLTLCLTKNGSIVNGIVSLVGVKGNLLNIQSTTTTVGVHLVFDEQGRLITSTPTALVPQASWGYRQGQSVSTNTVTNGLGFMPNVSAYPRPNASEAKSQMVSLTYLQGDTSKPITMKVAFNGITSLNGYSLTFMWSGLSNYINQPFSTPSCSFSYITQE	soluble
TRELEDAQAMTEGERRKLASVIAYMTDGVIATNRNGAIILLNSPALELLNVSRETALEMPITSLLGLQENYTFEDLVEQQDSMLLEIERDDELTVLRVNFSVIQREHGKIDGLIAVIYDVT	not soluble
TRIPGVRLMRAEQAYPRSPVFYEPRICILAQGQKIGFLGGETYRYDAERYLVMSVPLPFECETHASAAEPLLGVSVDVDIGTLKELLLQMEEAPGSDDDNELAPSAPMASVPLDAGMADAVMRLLGCLQSPLDSHILGPQLVREIIFRALRSEQGNAL	not soluble
TSQIRQNYSTEVEAAVNRLVNLHLRASYTYLSLGFFFDRDDVALEGVGHFFRELAEEKREGAERLLEFQNDRGGRALFQDVQKPSQDEWGKTQEAMEAALAMEKNLNQALLDLHALGSARADPHLCDFLESHYLDKEVKLIKKMGNHLTNLRRVAGPQPAQTGAPQGSLGEYLFERLTLKHD	soluble
TSRKLNDAANERLAAQQDLRNAATLIVRDARMAGGFGCFNMSEHPATDVIPDTTQQNSPFSLKRNGIDKLIPIAESSNINYQNFFQVGSALIFQYGIDD	not soluble
TSTDWKEAKSFLKGLSDKQREEHYFCKDFVRLKKIPTWKEMAKGVAVKVEEPRYKKDKQLNEKISLLRSDITKLEVDAIVNAANSSLLGGGGVDGCIHRAAGPLLTDECRTLQSCKTGKAKITGGYRLPAKYVIHTVGPIAYGEPSASQAAELRSCYLSSLDLLLEHRLRSVAFPCISTGVFGYPCEAAAEIVLATLREWLEQHKDKVDRLIICVFLEKDEDIYRSRLPHYFPVA	soluble
TVKSGLILQSISNDVYHNLAVEDWIHDHMNLEGKPVLFLWRNSPTVVIGRHQNPWQECNLNLMREEGVKLARRRSGGGTVYHDMGNINLTFFTTKKKYDRMENLKLVVRALKAVHPHLDVQATKRFDLLLDGQFKISGTASKIGRNAAYHHCTLLCGTDGTFLSSLLKSPYQGIRSNATASTPALVKNLMEKDPTLTCEVVINAVATEYATSHQIDNHIHLINPTDETVFPGINSKAIELQTWEWIYGKTPKFSVDTSFTVLHEQSHVEIKVFIDVKNGRIEVCNIEAPDHWLPLEICDQLNSSLIGSKFSPIETTVLTSILHRTYPGDDELHSKWNILCEKIKGIM	soluble
TVRLMVDLRHHAAMLEEENDERTRAEQKLAETNVFLNSVVDGVAEPMVVVGLDRRVIMTNRAARDFFQISDVGSDEACHRLIHHRDTPCVREEGMQCPLLDVRTAKRPVIATQEHRDRSGDKRVVEVMTSPLLGSD	not soluble
VAATKASTATDEPVKRTATKSPAASASGAKTGAKRTAAKSASGSPPAKRATKPAARSVKPASAPQDTTTSTIPKRKTRAAAKSAAAKAPSARGHATKPRAPKDAQHEAATDPEDALDSVEELDAEPDLDVEPGEDLDLDAADLNLDDLEDDVAPDADDDLDSGDDEDHEDLEAEAAVAPGQTADDDEEIAEPTEKDKASGDFVWDEDESEALRQARKDAELTASADSVRAYLKQIGKVALLNAEEEVELAKRIEAGLYATQLMTELSERGEKLPAAQRRDMMWICRDGDRAKNHLLEANLRLVVSLAKRYTGRGMAFLDLIQEGNLGLIRAVEKFDYTKGYKFSTYATWWIRQAITRAMADQARTIRIPVHMVEVINKLGRIQRELLQDLGREPTPEELAKEMDITPEKVLEIQQYAREPISLDQTIGDEGDSQLGDFIEDSEAVVAVDAVSFTLLQDQLQSVLDTLSEREAGVVRLRFGLTDGQPRTLDEIGQVYGVTRERIRQIESKTMSKLRHPSRSQVLRDYLD	soluble
VACMIPAPAYHPDPRFQALGGEFADPVEPADFPETVLRFRNDRAAATVGLETLDDRAWLRHFGRFEPLPDNQTRPLAMRYHGHQFRVYNPDLGDGRGFLFGQLREAGTGRLLDLATKGSGQTPWSRAGDGRLTLKGGVREILAASFLEALGVPTSRWCGL	soluble
VADFRYNVGLNLSAVKNKAVKFSGDGPIQTGGFNSDQIIRNEDGGLISRFYGYVADGIFQNWDEVYAHTNENGKLVQSNAQPGDIRFKDLNHDGVLDENDKTWIGNPYPDLMVGLNLGFSYKNIDFTANFYGTFGNDIFNKTKGLYSGVSGQNVWTGTLQKAWHGEGTSNDIPRLSYNDLNQNYTRVSSFFVEDGSYMRCKLLQVGYTLPKKWLNGTELRLSLSAQNPFTITSYSGMDPERPQIGKDGSVIETGIDGIAYPNPRTFLFGIDLKF	not soluble
VAFTEKQDALVSSSFEAFKANIPQYSVVFYTSILEKAPAAKDLFSFLANGVDPTNPKLTGHAEKLFALVRDSAGQLKASGTVVADAALGSVHAQKAVTDPQFVVVKEALLKTIKAAVGDKWSDELSRAWEVAYDELAAAIKKA	soluble
VALAATRAFYWIEAQSPDAATAFAQRVFDLYFSDRLDTASPEAVSRLGPEVGLEPEALLAGIADPALKETVRKIGEDAVARGIFGSPFFLVDDEPFWGWDRMEMMAEWIRTGGW	not soluble
VALESATVGSMHERTVRARTATGIVEGFTRDGVHRWRSIPYARAPVGSLRFRAPQPAQPWPGVRHCHTFANCAPQQRRYTVMGIGRYQTRSEDCLTLNVVTPEEPATQPLPVMVFIHGGGYILGSSATPIYDGAALARRGCVYVSVNYRLGALGCLDLSSLSTPQITLDSNVYLRDLVLALRWVHDNIAEFGGDPGNVTIFGESAGAHITATLLAVPAAKGLFARAISESPAAGMVRSREVAAEFAARFANLIGARTQDAANALMQASPAQLVEAQHHLIRQGMRKRLGAFPIGPVFGDDYLPMDPVEAMRSGRVHAVPLIVGTNAEEGRLFTRFLGMLPTNEPMVEELLSGMKPADRERITAAYPNYPAPSACIQLGGDFAFSSAAWQIAEAHGANAPTYLYRYDYAPRTLRWSGFGATHATELFAVFDIYRTRFGALLTAAADRRAALRVSNEVQRRWRCFSQIGVPGDDWPAYTQDDRAVLVFDRRCRIEFDPHQHRRIAWDGFSLAN	not soluble
VAVGARCVCGRPLAVVTRPLLPGGVPFPTTCYLTGPEAVKAISHIEAEGKMKEYNDMLAENEDLRAGYERAHELYLAFRHEIALALEDSEEHIEGTSAGGMPVRVKCLHALLAQTLVMGEGANPIGDMALSAIKHEFDPAVCRCAVENEE	not soluble
VCSCRLVFCRRTELRVGNCLIGGVSFTYCCTRV	soluble
VDRYNDQASGRALIEIRLCNERATPMPIPIGLWMFQTKLHVNAGGADVFLPVCDVLEQDLAERDEEVRQLNLQYRNRLEYAIGRTCSAAWSVNGSRRPSAVWTTWLPVAETPHTRARSVENALLSMDSRGGVT	not soluble
VDTHSEVLIFEVIPADDFLQQQLQITVQDRVWHVKRVRYRKQKPMALEETWMPLALFPDLTWQVMENSKYHFIEEVKKMVIDRSEQEIIPLMPTEEMSRLLNISQTKPILEKVSRGYLVDGRVFEYSRNAFNT	soluble
VFIEERLEELSTFADSSDLTKIEYGNKKIGIITSGIAYNYAKEVIPDASFLKFGMSYPLPEEKIKEFVENCDKVYVFEELEPIFEQKIKSMGLNVIGKEIFPIIGELSSEIIRNALLNESKEVIDKFDELPQRPPVLCPGCHHRGPFYVLKKLKLHVAGDIGCYTLGGFGPLNAIDTTICMGASIGMAH	not soluble
VGSIQPDFLGSVNSSLRYKNWTLRASMDMRFGGMVAIYGSHYGTAYGYLKSSMNGVDAENGGITYTSIWDGLTYDDGIIPEAIMPGGQTINTPSGTYTIAEGGELYADLVNRGIVDPQHASSWNYWNNSWGRAAVWKNNDWFHELNYIALREVSLSYRMPGKIADKIGASGINLTLTGRNLGYLLNSLPNNFNPESLRGTQAGQFMIRSVSPYTASYTFTINATF	not soluble
VIHVTKEVKEVATLSCGHNVSVEELAQTRIYWQKEKKMVLTMMSGDMNIWPEYKNRTIFDITNNLSIVILALRPSDEGTYECVVLKYEKDAFKREHLAEVTLSVKADFPTPSISDFEIPTSNIRRIICSTSGGFPEPHLSWLENGEELNAINTTVSQDPETELYAVSSKLDFNMTTNHSFMCLIKYGHLRVNQTFNWNTAK	soluble
